# Experimental data published in US10800847.
# Columns and labels:
# HLA-B*1510 (B71) (human) = assay: Luminex regular beads (#7), IVIg diluted 1:4
# HLA-B*1301 (B13) (human) = assay: Luminex regular beads (#7), IVIg diluted 1:4
# HLA-B*1503 (B72) (human) = assay: Luminex regular beads (#7), IVIg diluted 1:4
# HLA-B*1502 (B75) (human) = assay: Luminex regular beads (#7), IVIg diluted 1:4
# HLA-B*1801 (B18) (human) = assay: Luminex regular beads (#7), IVIg diluted 1:4
# HLA-B*1302 (B13) (human) = assay: Luminex regular beads (#7), IVIg diluted 1:4
# HLA-B*1516 (B63) (human) = assay: Luminex regular beads (#7), IVIg diluted 1:4
# HLA-B*1402 (B65) (human) = assay: Luminex regular beads (#7), IVIg diluted 1:4
# HLA-B*0702 (B7) (human) = assay: Luminex regular beads (#7), IVIg diluted 1:4
# HLA-B*1401 (B64) (human) = assay: Luminex regular beads (#7), IVIg diluted 1:4
# HLA-B*0801 (B8) (human) = assay: Luminex regular beads (#7), IVIg diluted 1:4
# HLA-B*1511 (B75) (human) = assay: Luminex regular beads (#7), IVIg diluted 1:4
# HLA-B*1501 (B62) (human) = assay: Luminex regular beads (#7), IVIg diluted 1:4
# [1] = molecular target: HLA-A*6801 (A68) single antigen on beads (human); assay: Luminex iBeads (#6), IVIg 1:4
# [2] = molecular target: HLA-A*3301 (A33) single antigen on beads (human); assay: Luminex iBeads (#6), IVIg 1:4
# [3] = molecular target: HLA-A*3101 (A31) single antigen on beads (human); assay: Luminex iBeads (#6), IVIg 1:4
# [4] = molecular target: HLA-A*6602 (A66) single antigen on beads (human); assay: Luminex iBeads (#6), IVIg 1:4
# [5] = molecular target: HLA-A*2902 (A29) single antigen on beads (human); assay: Luminex iBeads (#6), IVIg 1:4
# [6] = molecular target: HLA-A*3201 (A32) single antigen on beads (human); assay: Luminex iBeads (#6), IVIg 1:4
# [7] = molecular target: HLA-A*3002 (A30) single antigen on beads (human); assay: Luminex iBeads (#6), IVIg 1:4
# [8] = molecular target: HLA-A*3001 (A30) single antigen on beads (human); assay: Luminex iBeads (#6), IVIg 1:4
# [9] = molecular target: HLA-A*3601 (A36) single antigen on beads (human); assay: Luminex iBeads (#6), IVIg 1:4
# [10] = molecular target: HLA-A*4301 (A43) single antigen on beads (human); assay: Luminex iBeads (#6), IVIg 1:4
# [11] = molecular target: HLA-A*3402 (A34) single antigen on beads (human); assay: Luminex iBeads (#6), IVIg 1:4
# [12] = molecular target: HLA-A*3303 (A33) single antigen on beads (human); assay: Luminex iBeads (#6), IVIg 1:4
# [13] = molecular target: HLA-A*6601 (A66) single antigen on beads (human); assay: Luminex iBeads (#6), IVIg 1:4
# [14] = molecular target: HLA-Cw*1701 (Cw17) (human); assay: Luminex, iBead vs regular bead MFI, 1:4
# [15] = molecular target: HLA-Cw*0702 (Cw7) (human); assay: Luminex, regular beads (#7), 1:4
# [16] = molecular target: HLA-Cw*1802 (Cw18) (human); assay: Luminex, regular beads (#7), 1:4
# [17] = molecular target: HLA-Cw*0102 (Cw1) (human); assay: Luminex, regular beads (#7), 1:4
# [18] = molecular target: HLA-Cw*1701 (Cw17) (human); assay: Luminex, regular beads (#7), 1:4
# [19] = molecular target: HLA-Cw*1402 (Cw14) (human); assay: Luminex, regular beads (#7), 1:4
# [20] = molecular target: HLA-Cw*0302 (Cw10) (human); assay: Luminex, regular beads (#7), 1:4
# [21] = molecular target: HLA-Cw*0602 (Cw6) (human); assay: Luminex, regular beads (#7), 1:4
# [22] = molecular target: HLA-Cw*0304 (Cw10) (human); assay: Luminex, regular beads (#7), 1:4
# [23] = molecular target: HLA-Cw*0401 (Cw4) (human); assay: Luminex, regular beads (#7), 1:4
# HLA-B*8201 (B82) (human) = assay: Luminex, regular beads (#7), 1:4
# [24] = molecular target: HLA-Cw*0202 (Cw2) (human); assay: Luminex, regular beads (#7), 1:4
# [25] = molecular target: HLA-Cw*1502 (Cw15) (human); assay: Luminex, regular beads (#7), 1:4
# [26] = molecular target: HLA-Cw*1601 (Cw16) (human); assay: Luminex, regular beads (#7), 1:4
# [27] = molecular target: HLA-A*3401 (A34) single antigen on beads (human); assay: Luminex, iBead vs regular bead, IVIg 1:4
# [28] = molecular target: HLA-A*3301 (A33) single antigen on beads (human); assay: Luminex, iBead vs regular bead, IVIg 1:4
# [29] = molecular target: HLA-A*6602 (A66) single antigen on beads (human); assay: Luminex, iBead vs regular bead, IVIg 1:4
# [30] = molecular target: HLA-A*2902 (A29) single antigen on beads (human); assay: Luminex, iBead vs regular bead, IVIg 1:4
# [31] = molecular target: HLA-A*3201 (A32) single antigen on beads (human); assay: Luminex, iBead vs regular bead, IVIg 1:4
# [32] = molecular target: HLA-A*3002 (A30) single antigen on beads (human); assay: Luminex, iBead vs regular bead, IVIg 1:4
# [33] = molecular target: HLA-A*6601 (A66) single antigen on beads (human); assay: Luminex, iBead vs regular bead, IVIg 1:4
substance,measurement,setting,value
"IVIg Sandoglobulin (Novartis, Basel, Switzerland) (antibody)",MFI,HLA-B*1510 (B71) (human),240 MFI
same,MFI,HLA-B*1301 (B13) (human),524 MFI
same,MFI,HLA-B*1503 (B72) (human),0 MFI
same,MFI,HLA-B*1502 (B75) (human),157 MFI
same,MFI,HLA-B*1801 (B18) (human),0 MFI
same,MFI,HLA-B*1302 (B13) (human),476 MFI
same,MFI,HLA-B*1516 (B63) (human),799 MFI
same,MFI,HLA-B*1402 (B65) (human),239 MFI
same,MFI,HLA-B*0702 (B7) (human),309 MFI
same,MFI,HLA-B*1401 (B64) (human),621 MFI
same,MFI,HLA-B*0801 (B8) (human),233 MFI
same,MFI,HLA-B*1511 (B75) (human),637 MFI
same,MFI,HLA-B*1501 (B62) (human),0 MFI
same,MFI,[1],307 MFI
same,MFI,[2],684 MFI
same,MFI,[3],295 MFI
same,MFI,[4],768 MFI
same,MFI,[5],932 MFI
same,MFI,[6],769 MFI
same,MFI,[7],526 MFI
same,MFI,[8],540 MFI
same,MFI,[9],636 MFI
same,MFI,[10],949 MFI
same,MFI,[11],177 MFI
same,MFI,[12],439 MFI
same,MFI,[13],783 MFI
same,Difference %,[14],-29%
same,MFI,[15],1970 MFI
same,MFI,[16],1550 MFI
same,MFI,[17],998 MFI
same,MFI,[18],1490 MFI
same,MFI,[19],991 MFI
same,MFI,[20],1024 MFI
same,MFI,[21],1560 MFI
same,MFI,[22],844 MFI
same,MFI,[23],1570 MFI
same,MFI,HLA-B*8201 (B82) (human),639 MFI
same,MFI,[24],1280 MFI
same,MFI,[25],778 MFI
same,MFI,[26],973 MFI
same,Difference % (iBead MFI vs regular bead MFI),[27],80%
same,Difference % (iBead MFI vs regular bead MFI),[28],270%
same,Difference % (iBead MFI vs regular bead MFI),[29],111%
same,Difference % (iBead MFI vs regular bead MFI),[30],366%
same,Difference % (iBead MFI vs regular bead MFI),[31],202%
same,Difference % (iBead MFI vs regular bead MFI),[32],202%
same,Difference % (iBead MFI vs regular bead MFI),[33],742%
